Reference: publication PMC8249747

Molecular target: T1, QseA (YhcS, AaeR) (Escherichia coli K-12 W3110 type-A) (UniProt P67662)
T1 sequence: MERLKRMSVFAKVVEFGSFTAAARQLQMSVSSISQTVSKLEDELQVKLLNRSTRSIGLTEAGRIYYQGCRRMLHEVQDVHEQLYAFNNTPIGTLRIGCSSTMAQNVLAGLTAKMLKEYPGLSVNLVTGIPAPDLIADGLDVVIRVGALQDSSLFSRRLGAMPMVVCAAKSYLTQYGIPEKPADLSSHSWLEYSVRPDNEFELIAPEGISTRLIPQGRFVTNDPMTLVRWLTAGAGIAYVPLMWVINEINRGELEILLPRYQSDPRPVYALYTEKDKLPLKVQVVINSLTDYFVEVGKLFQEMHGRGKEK
Experiment: EMSA
Settings: EMSA: gel shift buffer (composition not given), 37 C 30 min, PAGE, GelRed, footprinting: 1.0 pmol FITC probe, 25 C 30 min, 5 ng …

## GCGTTTTAGTCGTTCCATTATTCACTCTGACTTAAAAGTGATTTAGATCACATAATATAGATAACAGCATAACAGTTACGCTAATATATTAAATATCAATCTACAGCAATGTTGCTCTCGCCCGGCTTTCCATGCCCTTCTCTGCGGCGACAGATGCTGAAAATAATAACGCCTGCTCTCTCTTTACAACCAAGGTCAACATGAGTCTGTTTCCCGTTAT (double strand) [aaeX/qseA spacer probe (gel shift)]
  binding: binds
